± gives the standard deviation of the averaged measurements.

The nature of this data set: total protein half-life in vivo (active degradation + dilution); higher = more stable protein.
Setting [1] is: E. coli NCM3722 delta-clpP delta-lon delta-hslV, growth: N-lim chemostat, doubling time 6 h.
[2] abbreviates: wild type E. coli NCM3722, growth: P-lim chemostat, doubling time 12 h.
[3] abbreviates: E. coli NCM3722 delta-clpP, growth: N-lim chemostat, doubling time 6 h.
Setting [4] is: E. coli NCM3722 delta-hslV, growth: N-lim chemostat, doubling time 6 h.
[5] abbreviates: E. coli NCM3722 delta-lon, growth: N-lim chemostat, doubling time 6 h.
Where [6] appears, read: E. coli NCM3722 delta-smpB, growth: N-lim chemostat, doubling time 6 h.
Where [7] appears, read: wild type E. coli NCM3722, growth: C-lim chemostat, doubling time 3 h.
Setting [8] is: wild type E. coli NCM3722, growth: C-lim chemostat, doubling time 6 h.
Where [9] appears, read: wild type E. coli NCM3722, growth: C-lim chemostat, doubling time 12 h.
The mark [10] stands for this setting: wild type E. coli NCM3722, growth: N-lim chemostat, doubling time 6 h.
[11] abbreviates: wild type E. coli NCM3722, growth: N-lim chemostat, doubling time 12 h.
The mark [12] stands for this setting: wild type E. coli NCM3722, growth: P-lim chemostat, doubling time 6 h.

In the case of “MASVSISCPSCSATDGVVRNGKSTAGHQRYLCSHCRKTWQLQFTYTASQPGTHQKIIDMAMNGVGCRATARIMGVGLNTILRHLKNSGRSR [P0CF07]”, the “total protein half-life in vivo” value is 2.96 h under setting [1] and 2.5 h under setting [2].

As to “MTSENPLLALREKISALDEKLLALLAERRELAVEVGKAKLLSHRPVRDIDRERDLLERLITLGKAHHLDAHYITRLFQLIIEDSVLTQQALLQQHLNKINPHSARIAFLGPKGSYSHLAARQYAARHFEQFIESGCAKFADIFNQVETGQADYAVVPIENTSSGAINDVYDLLQHTSLSIVGEMTLTIDHCLLVSGTTDLSTINTVYSHPQPFQQCSKFLNRYPHWKIEYTESTSAAMEKVAQAKSPHVAALGSEAGGTLYGLQVLERIEANQRQNFTRFVVLARKAINVSDQVPAKTTLLMATGQQAGALVEALLVLRNHNLIMTRLESRPIHGNPWEEMFYLDIQANLESAEMQKALKELGEITRSMKVLGCYPSENVVPVDPT [P0A9J8]”, the “total protein half-life in vivo” value turned out to be 5.3 ± 1.8 h under setting [1]; 4.03 ± 0.25 h under setting [3]; 4.9 ± 1.2 h under setting [4]; 4.67 ± 0.14 h under setting [5]; 4.1437 ± 0.0033 h under setting [6]; 2.62 ± 0.6 h under setting [7]. Further, the “total protein half-life in vivo” value is 5.375 ± 0.04 h under setting [8]; 11 ± 0.42 h under setting [9]; 4.129 ± 0.037 h under setting [10]; 6.55 ± 0.09 h under setting [11]; 5.88 ± 0.58 h under setting [12]; 11.77 ± 0.076 h under setting [2].

Consider “MANELTWHDVLAEEKQQPYFLNTLQTVASERQSGVTIYPPQKDVFNAFRFTELGDVKVVILGQDPYHGPGQAHGLAFSVRPGIAIPPSLLNMYKELENTIPGFTRPNHGYLESWARQGVLLLNTVLTVRAGQAHSHASLGWETFTDKVISLINQHREGVVFLLWGSHAQKKGAIIDKQRHHVLKAPHPSPLSAHRGFFGCNHFVLANQWLEQRGETPIDWMPVLPAESE”, for which the “total protein half-life in vivo” value reads like this: under setting [3], 5.184 ± 0.029 h; under setting [4], 5.26 ± 0.17 h; under setting [5], 5.24 ± 0.29 h; under setting [6], 5.6 ± 0.28 h; under setting [7], 3.1 ± 0.099 h; under setting [8], 5.17 ± 0.19 h. The “total protein half-life in vivo” value came to 11.2 ± 2.4 h under setting [9], 4.89 ± 0.42 h under setting [10], 10.6 ± 0.65 h under setting [11] and 5.97 ± 0.092 h under setting [12].

For the sequence “MSAIEVKNLVKKFHGQTVLHGIDLEVKPGEVVAIIGPSGSGKTTLLRSINLLEQPEAGTITVGDITIDTARSLSQQKSLIRQLRQHVGFVFQNFNLFPHRTVLENIIEGPVIVKGEPKEEATARARELLAKVGLAGKETSYPRRLSGGQQQRVAIARALAMRPEVILFDEPTSALDPELVGEVLNTIRQLAQEKRTMVIVTHEMSFARDVADRAIFMDQGRIVEQGAAKALFADPEQPRTRQFLEKFLLQ”, the “total protein half-life in vivo” value runs as follows: under setting [3], 5.314 ± 0.015 h; under setting [4], 5.44 ± 0.48 h; under setting [5], 6.65 ± 1.8 h; under setting [6], 5.38 ± 0.14 h; under setting [7], 3.11 ± 0.18 h; under setting [8], 5.25 ± 0.71 h. Also, the “total protein half-life in vivo” value under setting [9] is 10.2 ± 1.1 h; the “total protein half-life in vivo” value under setting [10] is 6.41 ± 1.5 h; the “total protein half-life in vivo” value under setting [11] was 9.13 ± 1.8 h; the “total protein half-life in vivo” value under setting [12] is 5.16 ± 0.33 h; the “total protein half-life in vivo” value under setting [2] worked out at 12.2 ± 1.3 h.

“MFKSFFPKPGTFFLSAFVWALIAVIFWQAGGGDWVARITGASGQIPISAARFWSLDFLIFYAYYIVCVGLFALFWFIYSPHRWQYWSILGTALIIFVTWFLVEVGVAVNAWYAPFYDLIQTALSSPHKVTIEQFYREVGVFLGIALIAVVISVLNNFFVSHYVFRWRTAMNEYYMANWQQLRHIEGAAQRVQEDTMRFASTLENMGVSFINAIMTLIAFLPVLVTLSAHVPELPIIGHIPYGLVIAAIVWSLMGTGLLAVVGIKLPGLEFKNQRVEAAYRKELVYGEDDATRATPPTVRELFSAVRKNYFRLYFHYMYFNIARILYLQVDNVFGLFLLFPSIVAGTITLGLMTQITNVFGQVRGAFQYLINSWTTLVELMSIYKRLRSFEHELDGDKIQEVTHTLS [P0AFY6]”: the “total protein half-life in vivo” value under setting [1] was found to be 5.51 ± 0.24 h; the “total protein half-life in vivo” value under setting [3] was found to be 5.35 ± 0.061 h; the “total protein half-life in vivo” value under setting [4] turned out to be 5.4 ± 0.62 h; the “total protein half-life in vivo” value under setting [5] turned out to be 5.41 ± 0.43 h; the “total protein half-life in vivo” value under setting [6] is 5.52 ± 0.15 h; the “total protein half-life in vivo” value under setting [8] amounted to 4.97 ± 1.2 h. For the same sequence, the “total protein half-life in vivo” value runs as follows: under setting [9], 11.3 ± 1.3 h; under setting [11], 8.73 ± 0.38 h; under setting [12], 5.77 ± 0.34 h.

With “MRADKSLSPFEIRVYRHYRIVHGTRVALAFLLTFLIIRLFTIPESTWPLVTMVVIMGPISFWGNVVPRAFERIGGTVLGSILGLIALQLELISLPLMLVWCAAAMFLCGWLALGKKPYQGLLIGVTLAIVVGSPTGEIDTALWRSGDVILGSLLAMLFTGIWPQRAFIHWRIQLAKSLTEYNRVYQSAFSPNLLERPRLESHLQKLLTDAVKMRGLIAPASKETRIPKSIYEGIQTINRNLVCMLELQINAYWATRPSHFVLLNAQKLRDTQHMMQQILLSLVHALYEGNPQPVFANTEKLNDAVEELRQLLNNHHDLKVVETPIYGYVWLNMETAHQLELLSNLICRALRK”, the “total protein half-life in vivo” value under setting [1] came out at 6.005 ± 0.0077 h; the “total protein half-life in vivo” value under setting [4] came to 5.415 ± 0.036 h; the “total protein half-life in vivo” value under setting [5] is 6.43 ± 0.51 h; the “total protein half-life in vivo” value under setting [6] was 5.53 ± 1.8 h; the “total protein half-life in vivo” value under setting [7] stood at 3.27 ± 0.35 h; the “total protein half-life in vivo” value under setting [8] was determined as 5.4 ± 0.19 h. Also, the “total protein half-life in vivo” value runs as follows: under setting [9], 11.5 ± 0.28 h; under setting [10], 5.61 ± 0.075 h; under setting [11], 7.75 ± 6 h; under setting [12], 4.76 ± 2.1 h; under setting [2], 10.6 ± 3.9 h.

As to “MLKRKKVKPITLRDVTIIDDGKLRKAITAASLGNAMEWFDFGVYGFVAYALGKVFFPGADPSVQMVAALATFSVPFLIRPLGGLFFGMLGDKYGRQKILAITIVIMSISTFCIGLIPSYDTIGIWAPILLLICKMAQGFSVGGEYTGASIFVAEYSPDRKRGFMGSWLDFGSIAGFVLGAGVVVLISTIVGEANFLDWGWRIPFFIALPLGIIGLYLRHALEETPAFQQHVDKLEQGDREGLQDGPKVSFKEIATKYWRSLLTCIGLVIATNVTYYMLLTYMPSYLSHNLHYSEDHGVLIIIAIMIGMLFVQPVMGLLSDRFGRRPFVLLGSVALFVLAIPAFILINSNVIGLIFAGLLMLAVILNCFTGVMASTLPAMFPTHIRYSALAAAFNISVLVAGLTPTLAAWLVESSQNLMMPAYYLMVVAVVGLITGVTMKETANRPLKGATPAASDIQEAKEILVEHYDNIEQKIDDIDHEIADLQAKRTRLVQQHPRIDE [P0C0L7]”, the “total protein half-life in vivo” value is 5.246 ± 0.018 h under setting [1]; 4.97 ± 0.25 h under setting [3]; 4.59 ± 0.35 h under setting [4]; 4.34 ± 0.14 h under setting [5]; 5.04 ± 0.79 h under setting [6]; 4.62 ± 0.43 h under setting [8]. Also, the “total protein half-life in vivo” value reads like this: under setting [9], 7.56 ± 3.2 h; under setting [10], 4.46 ± 0.41 h; under setting [11], 10.4 ± 2.3 h; under setting [12], 4.78 ± 0.066 h; under setting [2], 7.9 ± 0.16 h.

The record behind these values is the supplement of paper PMC11246515.
